The test concerns the target T1, Cbf5 (Pyrococcus furiosus, UniProt Q7LWY0 1-340).
T1 sequence (looked up): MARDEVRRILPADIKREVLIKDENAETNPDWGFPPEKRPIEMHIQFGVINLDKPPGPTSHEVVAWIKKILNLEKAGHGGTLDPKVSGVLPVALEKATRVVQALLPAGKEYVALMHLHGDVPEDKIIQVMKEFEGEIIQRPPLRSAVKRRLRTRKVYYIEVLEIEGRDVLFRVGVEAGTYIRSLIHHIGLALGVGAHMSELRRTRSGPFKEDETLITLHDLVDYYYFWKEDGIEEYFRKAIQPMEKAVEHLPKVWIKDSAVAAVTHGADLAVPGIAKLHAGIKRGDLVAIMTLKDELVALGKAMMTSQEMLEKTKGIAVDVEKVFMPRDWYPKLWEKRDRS
In words: crystal structure.

B1: Nop10 (natural protein, Pyrococcus furiosus)
chain: MRFRIRKCPKCGRYTLKEVCPVCGEKTKVAHPPRFSPEDPYGEYRRRWKREVLGIGRKEK
B1: the binding result is recorded as “binds”.
